We go through 22 molecules from paper PMC8034648, “Oligomeric complexes formed by Redβ single strand annealing protein in its different DNA bound states”.

Several values for one entry are separate records, joined by “and”; a condition that tells them apart may be missing. Equal values may be shown once.

In series [1] the target is Redβ single strand annealing protein from bacteriophage λ (bacteriophage λ) (UniProt P03698). As to the kind of experiment: native MS; Redβ alone, no DNA, at 1 μM or greater (up to 30 μM); 50 mM ammonium acetate pH 7; monomers to 12-mer.
Series [2] has the same target. Described as above. The source holds these as a separate data set.
Series [3] has the same target. Briefly: SEC-MALS; Redβ with dT38 ssDNA (6 nt/monomer, 22°C, 30 min); Superose 6 increase, PBS; loaded at 34 μM; n assumes one copy of dT38.
The target is the same in series [4]. The description is as above. The source holds these as a separate data set.
For series [5] the target is unchanged. As to the kind of experiment: SEC-MALS; Redβ with 83- ssDNA (6 nt/monomer, 22°C, 30 min); Superose 6 increase, PBS; loaded at 34 μM; n assumes one copy of the 83-mer.
For series [6] the target is unchanged. Briefly: native MS; 1 μM Redβ with two complementary strands added sequentially (83-:83+ or 83-:87+), annealed duplex; 50 mM ammonium acetate pH 7.
Series [7] shares this target. Described as above. This is another data set of the same source.
The target is the same in series [8]. Briefly: SEC-MALS; Redβ with 83- then 83+ added sequentially (annealed duplex); Superose 6 increase, PBS; loaded at 34 μM; n assumes one copy of 83-:83+.
Series [9] has the same target. As to the kind of experiment: SEC-MALS; Redβ with dT38 then dA38 added sequentially (annealed duplex, 4 nt/monomer each); Superose 6 increase, PBS; loaded at 34 μM; n assumes one copy of dT38:dA38.
The target is the same in series [10]. Briefly: SEC-MALS; Redβ alone, no DNA; Superose 6 increase 3.2/300, PBS, 0.04 ml/min; loaded at 34, 67 and 101 μM, eluted at 6.0, 13.5 and 18.5 μM; weight-average mass; monomers to oligomer.
The target is the same in series [11]. Briefly: native MS; Redβ (0.1 to 30 μM) with two complementary 38-mers added sequentially (dT38:dA38; at 1 μM also 38NC1+:38NC1- and 38NC3+:40NC3-), annealed duplex; 50 mM ammonium acetate pH 7.
Series [12] shares this target. The description is as above. This is another data set of the same source.
Series [13] deals with T1, Redβ single strand annealing protein (bacteriophage λ, UniProt P03698).
T1 sequence: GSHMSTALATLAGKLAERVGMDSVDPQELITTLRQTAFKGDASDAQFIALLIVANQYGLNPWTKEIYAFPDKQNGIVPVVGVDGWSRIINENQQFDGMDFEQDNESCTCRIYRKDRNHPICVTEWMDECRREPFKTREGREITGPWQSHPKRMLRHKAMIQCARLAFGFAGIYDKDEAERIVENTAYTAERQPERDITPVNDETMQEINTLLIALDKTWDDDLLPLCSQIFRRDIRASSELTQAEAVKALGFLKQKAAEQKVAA
Briefly: SEC-MALS; PBS; 427 kDa, n=14.0; EMSA: 10 uM Redβ, 50 uM nt DNA, 37 C, in PBS, or 20 mM Tris-HCl pH 7.5/10 mM NaCl/10 mM MgCl2, or 50 mM ammonium acetate pH 7.0; SEC-MALS: PBS, complexes formed. Conditions: protein: recombinant; tags: N-terminal GSH left after thrombin removal of 6xHis; chain copies: 11.

Series [14] has as its target T1, Redβ single strand annealing protein. Briefly: EMSA; PBS, ssDNA alone; EMSA: 10 uM Redβ, 50 uM nt DNA, 37 C, in PBS, or 20 mM Tris-HCl pH 7.5/10 mM NaCl/10 mM MgCl2, or 50 mM ammonium acetate pH 7.0; SEC-MALS: PBS, complexes formed. To be noted: protein: recombinant, tags: N-terminal GSH left after thrombin removal of 6xHis, chain copies: 11.
Series [15] shares this target. As to the kind of experiment: EMSA; strands added sequentially, PBS; EMSA: 10 uM Redβ, 50 uM nt DNA, 37 C, in PBS, or 20 mM Tris-HCl pH 7.5/10 mM NaCl/10 mM MgCl2, or 50 mM ammonium acetate pH 7.0; SEC-MALS: PBS, complexes formed. Conditions: protein: recombinant; tags: N-terminal GSH left after thrombin removal of 6xHis; chain copies: 11; label: 5'-Cy5, 5'-Cy3; blunt.

For series [16] the target is unchanged. Briefly: native MS; 1 uM Redβ and higher; 8-13 subunits; EMSA: 10 uM Redβ, 50 uM nt DNA, 37 C, in PBS, or 20 mM Tris-HCl pH 7.5/10 mM NaCl/10 mM MgCl2, or 50 mM ammonium acetate pH 7.0; SEC-MALS: PBS, complexes formed. To be noted: protein: recombinant; tags: N-terminal GSH left after thrombin removal of 6xHis; chain copies: 11.
The target is the same in series [17]. As to the kind of experiment: native MS; 1 uM Redβ; 5-15 subunits, 1 or 2 DNA; EMSA: 10 uM Redβ, 50 uM nt DNA, 37 C, in PBS, or 20 mM Tris-HCl pH 7.5/10 mM NaCl/10 mM MgCl2, or 50 mM ammonium acetate pH 7.0; SEC-MALS: PBS, complexes formed. To be noted: protein: recombinant; tags: N-terminal GSH left after thrombin removal of 6xHis; chain copies: 11.
Series [18] has the same target. As to the kind of experiment: native MS; strands added sequentially, 1 uM Redβ; 11 subunits; EMSA: 10 uM Redβ, 50 uM nt DNA, 37 C, in PBS, or 20 mM Tris-HCl pH 7.5/10 mM NaCl/10 mM MgCl2, or 50 mM ammonium acetate pH 7.0; SEC-MALS: PBS, complexes formed. Conditions: protein: recombinant, tags: N-terminal GSH left after thrombin removal of 6xHis, chain copies: 11.
For series [19] the target is unchanged. Briefly: EMSA; added first, then noncomplementary Cy5 50mer; unusually high affinity; EMSA: 10 uM Redβ, 50 uM nt DNA, 37 C, in PBS, or 20 mM Tris-HCl pH 7.5/10 mM NaCl/10 mM MgCl2, or 50 mM ammonium acetate pH 7.0; SEC-MALS: PBS, complexes formed. Conditions: protein: recombinant; tags: N-terminal GSH left after thrombin removal of 6xHis; chain copies: 11; label: 5'-Cy3.

Turning to “Redβ single strand annealing protein from bacteriophage λ (from UniProt P03698 1-261) (natural protein)”, the stoichiometry N in series [1] was 12 subunits; in series [2], 1 to 14 subunits; in [3] it was 14 subunits; in [4], 14.1 subunits; in series [5], 21.1 subunits; in series [6], 22 subunits. The stoichiometry N in series [7] was 21 subunits and 23 subunits; in series [8], 18.2 subunits; in series [9], 11.3 subunits; in series [10], 8.6 subunits and 9.1 subunits; in [11], 11 subunits; in series [12] it was 9 subunits and 10 subunits. In series [2], this molecule had a midpoint of the transition from monomer to 12-mer of 1 µM.
On to “Redβ single strand annealing protein from bacteriophage λ (from UniProt P03698 1-261)”, for which the stoichiometry N in [10] is 7.7 subunits.

B1: dT38 (ssDNA)
DNA: TTTTTTTTTTTTTTTTTTTTTTTTTTTTTTTTTTTTTT
Regarding B1, in [13], the binding result is on record as “binds”.

B2: Cy3 20mer (ssDNA)
DNA: GCCCTGCATAGCTCGATTTT
B2: the binding result in [14] (label: 5'-Cy3) is “no binding”.

B3: Cy5 20mer (ssDNA)
DNA: AAAATCGAGCTATGCAGGGC
For the molecule B3, the binding result in series [14] (label: 5'-Cy5) is listed as “no binding”.

B4: 24mer annealed duplex (dsDNA)
DNA 1: AAAATCGAGCTATGCAGGGCGATT
DNA 2: AATCGCCCTGCATAGCTCGATTTT
Take B4: the binding result in series [15] is listed as “binds”.

B5: dA38 (ssDNA)
DNA: AAAAAAAAAAAAAAAAAAAAAAAAAAAAAAAAAAAAAA
Take B5: the binding result in series [16] is recorded as “binds”.

B6: 38NC3+ (ssDNA)
DNA: GACGCACAATGACAGATAACACAATGGCGAGATAACGC
For B6, in [17], the binding result is “binds”.

B7: 38NC3+:40NC3- (dsDNA)
DNA 1: GACGCACAATGACAGATAACACAATGGCGAGATAACGC
DNA 2: GCGTTATCTCGCCATTGTGTTATCTGTCATTGTGCGTCGC
With B7, the binding result in [18] (3' overhang 2 nt on strand 2) is listed as “binds”.

B8: 28mer annealed duplex (dsDNA)
DNA 1: AAAATCGAGCTATGCAGGGCGATTCTGC
DNA 2: GCAGAATCGCCCTGCATAGCTCGATTTT
B8: the binding result in series [15] is “binds”.

B9: Cy3 16mer (ssDNA)
DNA: TGCATAGCTCGATTTT
Regarding B9, the binding result in series [14] (label: 5'-Cy3) is given as “no binding”.

B10: Cy3 NC 50mer (ssDNA)
DNA: GAGTGATAGGCATATGTGCTACGAGTATCGAAGGAACGGTCACTACGCAA
In the case of B10, the binding result in series [19] is “binds”.

B11: 38NC1+ (ssDNA)
DNA: AGACACAGTAAACGGACGCTAGATGCAACGAGATCCGA
Consider B11, for which, in [17], the binding result is recorded as “binds”.

B12: 38NC1+:38NC1- (dsDNA)
DNA 1: AGACACAGTAAACGGACGCTAGATGCAACGAGATCCGA
DNA 2: TCGGATCTCGTTGCATCTAGCGTCCGTTTACTGTGTCT
Consider B12, for which the binding result in [18] (blunt) was “binds”.

B13: 40NC3- (ssDNA)
DNA: GCGTTATCTCGCCATTGTGTTATCTGTCATTGTGCGTCGC
For B13, the binding result in series [17] was “binds”.

B14: Cy5 28mer (ssDNA)
DNA: AAAATCGAGCTATGCAGGGCGATTCTGC
For B14, in [14] (label: 5'-Cy5), the binding result is on record as “no binding”.

B15: Cy5 24mer (ssDNA)
DNA: AAAATCGAGCTATGCAGGGCGATT
With B15, the binding result in series [14] (label: 5'-Cy5) was “no binding”.

B16: 38NC1- (ssDNA)
DNA: TCGGATCTCGTTGCATCTAGCGTCCGTTTACTGTGTCT
As to B16, the binding result in [17] was “binds”.

B17: 20mer annealed duplex (dsDNA)
DNA 1: AAAATCGAGCTATGCAGGGC
DNA 2: GCCCTGCATAGCTCGATTTT
Consider B17, for which the binding result in series [15] was “binds”.

B18: Cy3 24mer (ssDNA)
DNA: AATCGCCCTGCATAGCTCGATTTT
As to B18, the binding result in series [14] (label: 5'-Cy3) was “no binding”.

B19: Cy3 28mer (ssDNA)
DNA: GCAGAATCGCCCTGCATAGCTCGATTTT
On to B19, for which, in [14] (label: 5'-Cy3), the binding result is given as “no binding”.

B20: Cy5 16mer (ssDNA)
DNA: AAAATCGAGCTATGCA
For the molecule B20, in series [14] (label: 5'-Cy5), the binding result is “no binding”.
